Laboratory results as given in paper PMC3779530 (Innate immunity, 2013).
Read-outs that look alike come from different tables or passages of the source.

Assays:
TLR4 ECD (Homo sapiens) [1] = target: TLR4 ECD (Homo sapiens) (UniProt O00206); details: cited from earlier work
Target sequence in this assay (O00206 24-631): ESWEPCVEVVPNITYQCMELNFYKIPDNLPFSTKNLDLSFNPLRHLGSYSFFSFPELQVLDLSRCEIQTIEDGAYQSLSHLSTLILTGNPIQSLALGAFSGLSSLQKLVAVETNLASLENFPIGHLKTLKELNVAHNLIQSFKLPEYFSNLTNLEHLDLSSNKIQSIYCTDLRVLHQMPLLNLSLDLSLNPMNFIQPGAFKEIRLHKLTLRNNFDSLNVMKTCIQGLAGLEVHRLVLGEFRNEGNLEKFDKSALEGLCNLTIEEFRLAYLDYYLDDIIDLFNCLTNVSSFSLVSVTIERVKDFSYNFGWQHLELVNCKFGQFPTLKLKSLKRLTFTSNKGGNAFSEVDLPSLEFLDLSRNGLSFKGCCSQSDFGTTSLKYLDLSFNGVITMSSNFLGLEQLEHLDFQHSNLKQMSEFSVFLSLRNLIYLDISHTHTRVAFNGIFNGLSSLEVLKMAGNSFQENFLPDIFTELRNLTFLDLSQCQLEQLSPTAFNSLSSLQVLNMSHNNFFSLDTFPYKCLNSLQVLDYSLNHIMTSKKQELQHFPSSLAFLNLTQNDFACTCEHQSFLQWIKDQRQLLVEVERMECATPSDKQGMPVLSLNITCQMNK

TLR4 ECD (Homo sapiens) [2] = target: TLR4 ECD (Homo sapiens) (UniProt O00206); details: cited from earlier work; remark: listed apart in the source
Target sequence in this assay (O00206 24-631 D299G/T399I): as the sequence (O00206 24-631) above, with D276G, T376I counted along it

[3] = target: full-length wild-type TLR4 on transiently transfected HEK293T cells (human, UniProt O00206 24-839); experiment: radioligand binding
full-length wild-type TLR4 on transiently transfected HEK293T cells, sequence (O00206 24-839): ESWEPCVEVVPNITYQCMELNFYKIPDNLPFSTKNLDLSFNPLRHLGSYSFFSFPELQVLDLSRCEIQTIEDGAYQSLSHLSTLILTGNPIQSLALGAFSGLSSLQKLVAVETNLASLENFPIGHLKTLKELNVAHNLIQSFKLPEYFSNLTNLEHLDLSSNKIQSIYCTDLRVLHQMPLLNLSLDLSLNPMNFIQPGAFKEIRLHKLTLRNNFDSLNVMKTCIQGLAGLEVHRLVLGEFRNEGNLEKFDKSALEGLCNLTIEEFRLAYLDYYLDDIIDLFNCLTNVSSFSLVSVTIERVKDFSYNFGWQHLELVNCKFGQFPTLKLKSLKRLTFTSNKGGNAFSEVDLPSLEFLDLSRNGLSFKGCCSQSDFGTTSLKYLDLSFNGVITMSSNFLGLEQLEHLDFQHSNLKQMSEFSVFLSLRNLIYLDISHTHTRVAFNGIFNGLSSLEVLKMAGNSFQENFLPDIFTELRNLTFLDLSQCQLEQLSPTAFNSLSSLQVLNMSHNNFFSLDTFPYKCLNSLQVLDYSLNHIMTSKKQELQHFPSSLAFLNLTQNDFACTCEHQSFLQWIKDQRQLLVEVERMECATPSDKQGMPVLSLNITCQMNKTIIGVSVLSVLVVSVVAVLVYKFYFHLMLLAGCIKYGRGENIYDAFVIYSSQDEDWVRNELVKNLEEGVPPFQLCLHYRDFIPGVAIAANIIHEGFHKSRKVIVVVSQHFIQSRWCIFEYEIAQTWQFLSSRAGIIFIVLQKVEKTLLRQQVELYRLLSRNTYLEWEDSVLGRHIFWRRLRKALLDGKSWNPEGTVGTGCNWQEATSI

[4] = target: FLAG-tagged TLR4 ectodomain-vlr-Fc protein (not stated | hagfish) (UniProt O00206); experiment: radioligand binding

## LOS·MD-2 (from UniProt Q9Y6Y9)
TLR4 ECD (Homo sapiens) [1]
  Kd: 0.2 nM
TLR4 ECD (Homo sapiens) [2]
  Kd: 0.2 nM

B1: metabolically labeled LOS·MD-2 (monomeric complex of Neisseria meningitidis lipooligosaccharide and recombinant human His6-MD-2) (ligand)
chain: QKQYWVCNSSDASISYTYCDKMQYPISINVNPCIELKRSKGLLHIFYIPRRDLKQLYFNLYITVNTMNLPKRKEVICRGSDDDYSFCRALKGETVNTTISFSFKGIKFSKGKYKCVVEAISGSPEEMLFCLEFVILHQPNSN
[3]
  Kd: 0.367 ± 0.136 nM
[4]
  Kd: 0.117 nM
